From PMC2174084 (The Journal of Cell Biology, 2002)
No end group written: not given here.

Molecular target: rabbit skeletal muscle actin, polymerized (F-actin) (rabbit, UniProt P68135 1-377)
Assay: co-sedimentation

Row | Binder | binding result | percent of the protein sedimenting with actin [%]
1 | LYAVGGHDGPMVRRSVEAYDCETNSWRSVADMSYCRRNAGVVAHDGL (domain or fragment, cysteine pairing not given here; also: biotin-labeled, place not given here) [Kelch repeat 5 (L594-L640)] | binds | –
2 | LYAVGGHDGPMVRRSVEAYDCETNSWRSVADMSFCRRNAGVVAHDGL (domain or fragment, cysteine pairing not given here; also: biotin-labeled, place not given here) [Kelch repeat 5 (L594-[Y627F]-L640)] | – | 100
3 | LYAVGGHDGPMVRRSVEAYDCETNSWRSVADMSDCRRNAGVVAHDGL (domain or fragment, cysteine pairing not given here; also: biotin-labeled, place not given here) [Kelch repeat 5 (L594-[Y627D]-L640)] | – | < 50
4 | LYAVGGHDGPMVRRSVEAYDCETNSWRSVADMSACRRNAGVVAHDGL (domain or fragment, cysteine pairing not given here; also: biotin-labeled, place not given here) [Kelch repeat 5 (L594-[Y627A]-L640)] | – | 100
